The results in this text go back to publication PMC11190223, “Identification of sulfakinin receptor regulating feeding behavior and hemolymph trehalose homeostasis in the silkworm, Bombyx mori” (Scientific Reports, 2024).

The target of test [1] is T1, BNGR-A9 expressed in BmN cells (pIZT-BNGR-A9) (Bombyx mori) (UniProt B3XXM2).
T1 sequence: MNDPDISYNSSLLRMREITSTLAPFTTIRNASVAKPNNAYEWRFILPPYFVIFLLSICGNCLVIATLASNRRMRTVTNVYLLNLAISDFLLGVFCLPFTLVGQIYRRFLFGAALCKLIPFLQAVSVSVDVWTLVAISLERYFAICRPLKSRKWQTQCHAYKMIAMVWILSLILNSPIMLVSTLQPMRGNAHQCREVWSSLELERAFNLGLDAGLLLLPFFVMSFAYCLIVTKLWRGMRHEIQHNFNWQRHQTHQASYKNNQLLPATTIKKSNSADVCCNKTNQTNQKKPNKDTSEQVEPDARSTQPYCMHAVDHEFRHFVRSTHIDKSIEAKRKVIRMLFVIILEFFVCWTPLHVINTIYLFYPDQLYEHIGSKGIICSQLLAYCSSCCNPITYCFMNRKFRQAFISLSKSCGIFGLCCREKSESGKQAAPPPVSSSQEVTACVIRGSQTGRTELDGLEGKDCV

Test [2] addresses T2, Flag-BNGR-A9 (Bombyx mori neuropeptide G protein-coupled receptor A9) expressed in HEK293 cells (Bombyx mori) (UniProt B3XXM2).
T2 sequence: T1 sequence

In test [3] the target is T1, BNGR-A9 expressed in BmN cells (pIZT-BNGR-A9) (Bombyx mori). This is another data set of the same source.
For test [4], the target named is T2, Flag-BNGR-A9 (Bombyx mori neuropeptide G protein-coupled receptor A9) expressed in HEK293 cells (Bombyx mori). This is another data set of the same source.

Where no end group is shown, it is not given here. [ ]: non-standard residue; d: D form. sY = N[C@@H](Cc1ccc(OS(=O)(=O)O)cc1)C(=O)O

B1: Bombyx mori sulfated-sulfakinin (peptide)
peptide: GDDTFDD[sY]GHLRF-NH2
modifications: N-terminus assumed
SMILES: CC(C)C[C@H](NC(=O)[C@H](Cc1c[nH]cn1)NC(=O)CNC(=O)[C@H](Cc1ccc(OS(=O)(=O)O)cc1)NC(=O)[C@H](CC(=O)O)NC(=O)[C@H](CC(=O)O)NC(=O)[C@H](Cc1ccccc1)NC(=O)[C@@H](NC(=O)[C@H](CC(=O)O)NC(=O)[C@H](CC(=O)O)NC(=O)CN)[C@@H](C)O)C(=O)N[C@@H](CCCNC(=N)N)C(=O)N[C@@H](Cc1ccccc1)C(N)=O
On to B1, for which the CRE-driven luciferase reporter, dose-response, BmN cells stably expressing BNGR-A9 in test [1] worked out at 60 nM. This molecule yielded a CRE-driven luciferase reporter, dose-response, HEK293 cells stably expressing BNGR-A9 in test [2] of 73.3 nM. In addition, the Fura-2 AM Ca2+ mobilization, dose-response, BmN cells expressing BNGR-A9 in test [3] amounted to 51.4 nM. The Fura-2 AM Ca2+ mobilization, dose-response 1 nM to 1 uM, HEK293 cells stably expressing BNGR-A9 in test [4] worked out at 29 nM.
